In test [1] the target is T1, human LAG-3 overexpressed on HEK293 cells (human, UniProt P18627 23-525).
T1 construct: whole, on cells; also called 293-hLAG-3 cells; hLAG-3 on the cell surface
T1 sequence (looked up): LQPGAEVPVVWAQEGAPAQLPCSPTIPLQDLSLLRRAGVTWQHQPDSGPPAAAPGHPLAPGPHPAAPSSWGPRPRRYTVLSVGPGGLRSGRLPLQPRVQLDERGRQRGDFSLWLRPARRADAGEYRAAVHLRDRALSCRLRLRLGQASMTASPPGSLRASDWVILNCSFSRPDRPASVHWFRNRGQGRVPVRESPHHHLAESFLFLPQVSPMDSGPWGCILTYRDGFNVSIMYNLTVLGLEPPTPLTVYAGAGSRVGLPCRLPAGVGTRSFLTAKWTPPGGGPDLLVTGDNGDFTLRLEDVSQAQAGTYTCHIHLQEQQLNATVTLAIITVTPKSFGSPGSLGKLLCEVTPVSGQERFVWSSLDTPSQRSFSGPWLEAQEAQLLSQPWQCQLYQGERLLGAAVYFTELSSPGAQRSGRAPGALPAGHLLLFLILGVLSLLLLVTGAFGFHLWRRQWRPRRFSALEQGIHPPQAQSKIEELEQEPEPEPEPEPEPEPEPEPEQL
The experiment in a line: flow cytometry on 293-hLAG-3 cells, MFI curve. Here is the method:
The binding of the 4 exemplary antibodies of the invention described above to human LAG-3 was measured in a flow cytometry-based assay. 293 cells (293-hLAG-3 cells) over-expressing human LAG-3 were generated by transfecting human embryonic kidney 293 cells (Invitrogen) with pCHO1.0 vectors (Invitrogen) carrying human LAG-3 cDNA (Sino Biological) cloned into multiple cloning sites (MCSs). 293-hLAG-3 cells (0.2×10⁶ cells) were mixed with different concentrations of antibodies (ADI-26789, ADI-26869 and reference 25F7) prepared as described above (the antibodies were serially three-fold diluted from a maximum concentration of 500 nM in PBS containing 0.1% bovine serum albumin (BSA) until the 8th concentration). The cells were incubated on ice for 30 min. The cells were then washed at least twice prior to addition of a secondary antibody (a PE-labeled goat anti-human IgG antibody, Southern Biotech, final concentration […]) diluted in 1:100, and incubated on ice (protected from light) for 30 minutes. The cells were washed at least twice and analyzed by flow cytometry. The flow cytometry assay was performed on an Accuri C6 system (BD Biosciences), and a concentration-dependent curve was fitted with GraphPad according to the mean fluorescence intensity (MFI).
(In general: A flow cytometer gives signals particle by particle.)

For test [2], the target named is T2, human LAG-3-His (human, UniProt P18627 23-450).
T2 construct: Bought antigen (ArcoBiosystems), 100 nM in solution in the ForteBio assay; also called human LAG-3 antigen (ArcoBiosystems); hLAG-3; not shown: His tag
T2 sequence (looked up): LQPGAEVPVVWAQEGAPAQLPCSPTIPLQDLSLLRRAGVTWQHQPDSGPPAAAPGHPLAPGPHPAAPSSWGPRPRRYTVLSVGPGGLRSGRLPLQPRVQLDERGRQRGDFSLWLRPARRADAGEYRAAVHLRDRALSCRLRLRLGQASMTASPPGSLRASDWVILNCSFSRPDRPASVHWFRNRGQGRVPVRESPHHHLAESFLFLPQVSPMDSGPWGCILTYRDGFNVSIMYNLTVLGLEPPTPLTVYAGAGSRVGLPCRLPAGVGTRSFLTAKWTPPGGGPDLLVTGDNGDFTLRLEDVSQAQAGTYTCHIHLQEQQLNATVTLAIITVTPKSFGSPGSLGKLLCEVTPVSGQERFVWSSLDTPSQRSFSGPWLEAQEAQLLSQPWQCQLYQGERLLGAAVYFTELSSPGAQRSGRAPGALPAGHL
The experiment in a line: BLI (ForteBio), antibody on AHQ tip, human LAG-3-His 100 nM in solution. Here is the method:
(§1) The purified antibody obtained as described above was loaded on-line onto an AHQ sensor (ForteBio) for ForteBio affinity assay. The sensor with the loaded antibody was then exposed to 100 nM of a human LAG-3 antigen (ArcoBiosystems) for 5 minutes before transferring the sensor to the assay buffer for dissociation for 5 minutes for dissociation rate measurement. Kinetic analysis was performed using a 1:1 binding model.
On the technique in general: BLI is a label-free optical method that tracks binding on a fibre tip over time.

In test [3] the target is T2, human LAG-3-His. The experiment in a line: BLI (ForteBio), antibody on AHQ tip, human LAG-3-His 100 nM in solution, univalent. Here is the method: as §1
For test [4], the target named is T3, mouse LAG-3 overexpressed on CHO cells (mouse, UniProt Q61790 24-521).
T3 construct: whole, on cells; also called CHO-mLAG-3 cells; mouse LAG-3 on the cell surface
T3 sequence (looked up): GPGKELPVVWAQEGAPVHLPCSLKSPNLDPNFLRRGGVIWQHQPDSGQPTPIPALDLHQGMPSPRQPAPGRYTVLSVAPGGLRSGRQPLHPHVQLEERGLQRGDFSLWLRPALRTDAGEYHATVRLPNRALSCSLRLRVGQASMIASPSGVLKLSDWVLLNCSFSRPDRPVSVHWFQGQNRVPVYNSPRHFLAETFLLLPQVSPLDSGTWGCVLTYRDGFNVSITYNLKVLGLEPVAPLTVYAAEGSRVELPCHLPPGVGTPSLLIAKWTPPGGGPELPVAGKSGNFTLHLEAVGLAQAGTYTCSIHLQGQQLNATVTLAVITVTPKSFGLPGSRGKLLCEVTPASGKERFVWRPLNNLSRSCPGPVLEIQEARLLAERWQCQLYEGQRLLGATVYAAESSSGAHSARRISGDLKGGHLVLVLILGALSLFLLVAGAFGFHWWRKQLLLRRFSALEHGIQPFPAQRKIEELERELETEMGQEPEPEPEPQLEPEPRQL
The experiment in a line: flow cytometry (MFI) on CHO cells overexpressing mouse LAG-3; fit value from the EC50 table on the sheet for a flat curve (see non_binding); table has no unit of its own (concentration axis in nM).

The target in another test is T4, human PD-L1 (human, UniProt Q9NZQ7 19-238).
T4 construct: Bought antigen; also called human PD-L1 antigen (Acrobiosystems)
Put plainly: BLI (ForteBio), antibody loaded on sensor, human PD-L1 in solution. How it is done:
The equilibrium dissociation constant (KD) for binding of the anti-PD-L1 antibody (HZ3266-IgG1N297A) to human PD-L1 was determined by biological optical interferometry (ForteBio). A ForteBio affinity assay of prior art was performed (Estep, P., et al, High throughput solution based measurement of antibody-antigen affinity and epitope binning. MAbs, 2013.5(2):270-8).
SD buffer, antibodies, and antigens (including human PD-L1, all purchased from Acrobiosystems) each of 100 μL were added to 96-well black polystyrene half area microplates (Greiner, 675076). The sensors were arranged according to the positions of the samples. The instrument settings were as follows: the operation procedures were Baseline, Loading ˜1 nm, Baseline, Association, and Dissociation. The run time of each procedure was dependent on the rates of association and dissociation. The rotation speed was 400 rpm, and the temperature was 30° C. The KD values were analyzed by ForteBio analysis software.

T4 sequence (Q9NZQ7 19-238 limits assumed): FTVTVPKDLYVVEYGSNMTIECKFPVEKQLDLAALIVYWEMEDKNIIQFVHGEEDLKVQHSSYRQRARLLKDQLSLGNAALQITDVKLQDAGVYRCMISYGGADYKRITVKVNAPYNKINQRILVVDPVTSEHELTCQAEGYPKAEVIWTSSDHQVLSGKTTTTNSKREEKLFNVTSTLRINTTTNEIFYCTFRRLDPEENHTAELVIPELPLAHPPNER

B1: BAP050 (antibody, V domains shown)
VH: QIQLVQSGPELKKPGETVKISCKASGFTLTNYGMNWVRQTPGKGLKWMGWINTDTGEPTYADDFKGRFAFSLETSASTASLQINNLKNADTATYFCARNPPYYYGTNNAEAMDYWGQGTAVTVSS
VL: DIQMTQTTSSLSASLGDRVTISCSSSQDISNYLNWYQQKPDGTVKVLIYYTSTLHLGVPSRFSGSGSGTDYSLTISNLELEDIATYYCQQYYNLPWTFGGGTKLEIK
The molecule B1 registered an EC50 in test [1] of 1.41 nM. In the test with human LAG-3-His [2], this molecule returned a koff of 0.0002 s⁻¹ and a kon of 237000 M⁻¹ s⁻¹. Also, the equilibrium dissociation constant (Kd) with human LAG-3-His [3] is 0.844 nM. This molecule also yielded an EC50 in test [4] of approximately 0.7 nM.

B2: 25F7 (antibody, V domains shown)
VH: QVQLQQWGAGLLKPSETLSLTCAVYGGSFSDYYWNWIRQPPGKGLEWIGEINHNGNTNSNPSLKSRVTLSLDTSKNQFSLKLRSVTAADTAVYYCAFGYSDYEYNWFDPWGQGTLVTVSS
VL: EIVLTQSPATLSLSPGERATLSCRASQSISSYLAWYQQKPGQAPRLLIYDASNRATGIPARFSGSGSGTDFTLTISSLEPEDFAVYYCQQRSNWPLTFGQGTNLEIK
In test [4], B2 returned an EC50 of 0.857 nM.

B3: ADI-26869 (antibody, human IgG4 S228P, kappa, F234A L235A, V domains shown)
VH: QLQLQESGPGLVKPSETLSLTCTVSGGSISSSDYYWGWIRQPPGKGLEWIGSIYYSGSTYYNPSLKSRVTISVDTSKNQFSLKLSSVTAADTAVYYCARVRTWDAAFDIWGQGTMVTVSS
VL: DIQMTQSPSSLSASVGDRVTITCQASQDISNYLNWYQQKPGKAPKLLIYDASNLETGVPSRFSGSGSGTDFTFTISSLQPEDIATYYCQQVHALPPWTFGGGTKVEIKR
notes: Fully human antibody from yeast display; IgG4 heavy chain constant region with kappa light chain; expressed in HEK293 cells; also called anti-human LAG-3 antibody ADI-26869; parent antibody
In test [1], B3 yielded an EC50 of 2.91 nM. Also, in the test with human LAG-3-His [2], the off-rate (koff) came to 0.00385 s⁻¹ and the kon amounted to 488000 M⁻¹ s⁻¹. In the test with human LAG-3-His [3], binding was put at a Kd of 7.88 nM.

B4: HZ3266-IgG1N297A (antibody, V domains shown)
VH: EVQLVQSGAEVKKPGATVKISCTASGFNIEDTYIHWVQQAPGQGLEWIGRIDPANDDTKYAPKFQGRATITADTSTDTAYMELSSLRSEDTAVYYCGRGLGRWFAYWGQGTLVTVSS
VL: GIVMTQSPDSLAVSLGERATINCKASQDVINAVAWYQQKPGQSPKLLIYSASNRYTGVPDRFSGSGSGTDFTLTISSLQAEDLAVYYCQQHYSPPLTFGGGTKVEIKR
notes: also called anti-PD-L1 antibody (HZ3266-IgG1N297A)
Turning to B4, the dissociation constant Kd with human PD-L1 was 0.724 nM.

B5: ADI-26789 (antibody, human IgG4 S228P, kappa, F234A L235A, V domains shown)
VH: EVQLVESGGGLVQPGRSLRLSCAASGFTFDDYAMHWVRQAPGKGLEWVSGISWNSGDIGYADSVKGRFTISRDNAKNSLYLQMNSLRAEDTALYYCAKGGYDGSYYGMDVWGQGTTVTVSS
VL: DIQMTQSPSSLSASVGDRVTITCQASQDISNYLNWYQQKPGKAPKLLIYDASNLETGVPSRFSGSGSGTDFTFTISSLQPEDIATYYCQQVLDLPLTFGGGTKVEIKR
notes: Fully human antibody from yeast display; IgG4 heavy chain constant region with kappa light chain; also called anti-human LAG-3 antibody ADI-26789; parent antibody
In test [1], B5 yielded a 50% effective concentration (EC50) of 2.14 nM. In the test with human LAG-3-His [2], the koff came out at 0.00389 s⁻¹ and the kon was 212000 M⁻¹ s⁻¹. The Kd with human LAG-3-His [3] turned out to be 18.3 nM.

In general, EC50 refers to the concentration needed to bring the measured effect to its halfway point. The term koff denotes the rate constant with which the complex falls apart. High values mean fast dissociation, low ones slow dissociation. The kon is a measure of how fast the partners come together. A low value points to slow association. Usually Kd stands for a measure of binding affinity in units of concentration. The low end stands for a tighter complex, the high end for a looser complex.
